In the supplement of paper PMC7125110:
± gives the standard error. For part of these data: Fewer inactive variants are shown than the library holds.

B1: glmS ribozyme (parent)
chain: AUAAAAGCGCCAGAACUACAGAAAUGUAGUUGACGAGGAGGAGGUUUAUCGAAUUUUCGGCGGAUGCCUCCAAA

Columns and labels:
Settings in all cases: with glucosamine-6-phosphate
[1] = variants of: B1; experiment: kcat; higher = faster cleavage; RNA array
Summary of the method: (§1)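 Glucosamine-6-phosphate, from 40 μM to 10 mM in HEPES/KCl/Mg(OAc)2 buffer, was flowed over sequenced MiSeq chips carrying barcoded ribozyme variants transcribed in situ by E. coli RNA polymerase. A hybridised Cy3 probe tracked the variants at 37 °C as tiles were imaged over ~14 h. kobs, kcat and KM were obtained by fitting normalised per-tile medians to exponential decays and then applying weighted Michaelis–Menten fits across concentrations.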

[2] = variants of: B1; experiment: self-cleavage kobs at 40 uM GlcN6P; higher = faster cleavage; RNA array
Summary of the method: as §1

[3] = variants of: B1; experiment: self-cleavage kobs at 160 uM GlcN6P; higher = faster cleavage; RNA array
Summary of the method: as §1

[4] = variants of: B1; experiment: self-cleavage kobs at 640 uM GlcN6P; higher = faster cleavage; RNA array
Summary of the method: as §1

[5] = variants of: B1; experiment: self-cleavage kobs at 2500 uM GlcN6P; higher = faster cleavage; RNA array
Summary of the method: as §1

[6] = variants of: B1; experiment: self-cleavage kobs at 10000 uM GlcN6P; higher = faster cleavage; RNA array
Summary of the method: as §1

[7] = variants of: B1; experiment: KM; higher = weaker cofactor use; RNA array
Summary of the method: as §1

Row | Variant | kcat [1] | self-cleavage kobs at 40 uM GlcN6P [2] | self-cleavage kobs at 160 uM GlcN6P [3] | self-cleavage kobs at 640 uM GlcN6P [4] | self-cleavage kobs at 2500 uM GlcN6P [5] | self-cleavage kobs at 10000 uM GlcN6P [6] | KM [7]
1 | AUAAAAGCGCCAGAACUACAGAAAUGUAUUUGACGAGGAGGAGGUUUAUCGAGUUUUCGGCGGAUGGCUCCAAA [G29U A53G C67G] | 0.000147 ± 2.6e-05 s⁻¹ | 5.1e-05 ± 1.8e-05 s⁻¹ | 6.91e-05 ± 1.9e-05 s⁻¹ | 0.000108 ± 1.9e-05 s⁻¹ | 0.000139 ± 3.6e-05 s⁻¹ | 0.000205 ± 4.9e-05 s⁻¹ | 
2 | AUAAAAGCGCCAGAACUACAGAAAUGUAUUUGACGAGGCGGAGGUUUAUCGAAUUUUCGGCGGAUGCCUCCAAA [G29U A39C] | 0.00147 ± 0.00028 s⁻¹ | 2.91e-05 ± 9.8e-06 s⁻¹ | 8.26e-05 ± 1.4e-05 s⁻¹ | 0.000457 ± 5.8e-05 s⁻¹ | 0.000781 ± 0.0001 s⁻¹ | 0.00118 ± 0.00014 s⁻¹ | 2170 ± 670 µM
3 | AUAAAAGCGCCAGAACUACAGAAAUGUACUUGACGAGGAGGAGGUUUAUCGAAUUUUCGGCGGAAGCCUCCAAA [G29C U65A] | 0.000197 ± 2.5e-05 s⁻¹ |  |  | 3.62e-05 ± 1.2e-05 s⁻¹ | 0.00013 ± 1.8e-05 s⁻¹ | 0.000157 ± 1.5e-05 s⁻¹ | 2100 ± 780 µM
4 | AUAAAAGCGCCAGAACUACAGAAAUGUACUUGACGAGGAGGAGGUUUCUCGAAUUUUCGGCGGAUGCCUCCAAA [G29C A48C] | 1.23e-05 ± 3.5e-06 s⁻¹ | < 1e-05 s⁻¹ | < 1e-05 s⁻¹ |  |  |  | 
5 | AUAAAAGCGCCAGAACUACAGAAAUGUACUUGACGAGGAGGAGGUUUAUCGAAUUUUCGGCGGAUGCCCCCAAA [G29C U69C] | 0.000103 ± 2.8e-05 s⁻¹ |  | 8.98e-05 ± 2.2e-05 s⁻¹ | 0.000129 ± 2.2e-05 s⁻¹ | 0.000164 ± 3e-05 s⁻¹ | 6.68e-05 ± 1.6e-05 s⁻¹ | 
6 | AUAAAAGCGCCAGAACUACAGAAAUGUACUUGACGAGGAGGAGGUUUAUCGAAUUUUCGGCGGAUUCCUCCAAA [G29C G66U] | 6.74e-05 ± 1.2e-05 s⁻¹ |  |  |  | 7.9e-05 ± 2e-05 s⁻¹ | 5.98e-05 ± 1e-05 s⁻¹ | 
7 | AUAAAAGCGCCAGAACUACAGAAAUGUAUUUGACGAGGAGGAGGUUUAUCGGAUUUUCGGCGGAUGCCUCCAAA [G29U A52G] | 0.00036 ± 7.1e-05 s⁻¹ |  |  | 6.73e-05 ± 9.7e-06 s⁻¹ | 0.000127 ± 2e-05 s⁻¹ | 0.00029 ± 3.3e-05 s⁻¹ | 3340 ± 1200 µM
8 | AUAAAAGCGCCAGAACUACAGAAAUGUACUUGACGAGGAGGAGGUUCAUCGAAUUUUCGGCGGAUGCCUCCAAA [G29C U47C] | 0.000131 ± 7.3e-06 s⁻¹ |  |  | 3.72e-05 ± 1.8e-05 s⁻¹ | 7.73e-05 ± 1.5e-05 s⁻¹ | 0.000112 ± 2.7e-05 s⁻¹ | 1730 ± 250 µM
